Assay: In vivo clearance of radiolabelled neurotrophin-3 from the cochlea after supraparticle implantation (whole cochlear gamma counts)
Experimental: In vivo studies were carried out to determine the drug payload and clearance of neurotrophin delivered in a supraparticle implanted into the ear after 4 hr, 3 day and 7 days of implantation. The objective was to determine the amount of neurotrophin remaining in the cochlea over time.
1 SP containing radiolabelled neurotrophin-3 was implanted into each cochlea. Cochleae were harvested following 4 hrs (n=5), 3d (n=7) or 7d (n=4). Whole cochlear gamma counts were measured to determine the clearance of neurotrophin-3 over time. After 1 week of implantation each SP contained ˜2 μg of neurotrophin-3 (˜40%) of initial loaded amount.
Further experiments (n=2) were carried out to examine clearance of neurotrophin-3 following round window delivery. 3 days after implantation-whole cochlear measurements were again used to determine the clearance of neurotrophin-3 from the round window membrane.

[1] = 1 SP implanted into each cochlea, after 1 week of implantation

With “neurotrophin-3: Radiolabelled neurotrophin delivered in a supraparticle implanted into the cochlea” the “neurotrophin-3 remaining (% of initial loaded amount)” value [1] was about 40%, the “neurotrophin-3 remaining per SP” value [1] was about 2 µg and the neurotrophin-3 remaining (intracochlear delivery, 3 days) was 56%. For the same substance, the neurotrophin-3 remaining (round window delivery, 3 days after implantation) was 47.4%.
